Here are results for two substances from patent publication US20020119148A1.

Assay [1] addresses HRG binding sites on human mammary carcinoma cell lines MDA-MB-453, T47D and BT474. The assay is described as follows: self-competition, 100 nM unlabeled HRG against 125I-HRG on T47D cells.
Assay [2] shares this target. Nature of the assay: self-competition, 100 nM unlabeled HRG against 125I-HRG on BT474 cells.
The target is the same in assay [3]. Nature of the assay: self-competition, 100 nM unlabeled HRG against 125I-HRG on MDA-MB-453 cells.
The target of assay [4] is HER-2 on human mammary carcinoma cell lines MDA-MB-453, T47D and BT474 (human) (UniProt P04626). Nature of the assay: 125I-HRG binding to T47D cells, 100 nM Mab.

Consider “HRGβ1(177-244), EGF-like domain of heregulin β1 (from UniProt Q02297 177-244) (ligand)”, for which the figures for the percent of 125I-HRG binding blocked in assay [1], in assay [2] and in assay [3] were 98%, 96% and 99%, respectively.

In the case of anti-HER-2 control Mab 4D5 (antibody), the percent of 125I-HRG binding blocked in assay [4] stood at 48%.
